Results reported in patent US10781452B2, “FLT3 receptor antagonists for the treatment or the prevention of pain disorders” (INSTITUT NATIONAL DE LA SANTE ET DE LA RECHERCHE MEDICALE …, priority 2010, dated 2020).

Target: T1, full-length mFLT3 (Mus musculus, UniProt Q00342)
T1 construct: host or cells: HEK293T
T1 sequence (Q00342 28-1000): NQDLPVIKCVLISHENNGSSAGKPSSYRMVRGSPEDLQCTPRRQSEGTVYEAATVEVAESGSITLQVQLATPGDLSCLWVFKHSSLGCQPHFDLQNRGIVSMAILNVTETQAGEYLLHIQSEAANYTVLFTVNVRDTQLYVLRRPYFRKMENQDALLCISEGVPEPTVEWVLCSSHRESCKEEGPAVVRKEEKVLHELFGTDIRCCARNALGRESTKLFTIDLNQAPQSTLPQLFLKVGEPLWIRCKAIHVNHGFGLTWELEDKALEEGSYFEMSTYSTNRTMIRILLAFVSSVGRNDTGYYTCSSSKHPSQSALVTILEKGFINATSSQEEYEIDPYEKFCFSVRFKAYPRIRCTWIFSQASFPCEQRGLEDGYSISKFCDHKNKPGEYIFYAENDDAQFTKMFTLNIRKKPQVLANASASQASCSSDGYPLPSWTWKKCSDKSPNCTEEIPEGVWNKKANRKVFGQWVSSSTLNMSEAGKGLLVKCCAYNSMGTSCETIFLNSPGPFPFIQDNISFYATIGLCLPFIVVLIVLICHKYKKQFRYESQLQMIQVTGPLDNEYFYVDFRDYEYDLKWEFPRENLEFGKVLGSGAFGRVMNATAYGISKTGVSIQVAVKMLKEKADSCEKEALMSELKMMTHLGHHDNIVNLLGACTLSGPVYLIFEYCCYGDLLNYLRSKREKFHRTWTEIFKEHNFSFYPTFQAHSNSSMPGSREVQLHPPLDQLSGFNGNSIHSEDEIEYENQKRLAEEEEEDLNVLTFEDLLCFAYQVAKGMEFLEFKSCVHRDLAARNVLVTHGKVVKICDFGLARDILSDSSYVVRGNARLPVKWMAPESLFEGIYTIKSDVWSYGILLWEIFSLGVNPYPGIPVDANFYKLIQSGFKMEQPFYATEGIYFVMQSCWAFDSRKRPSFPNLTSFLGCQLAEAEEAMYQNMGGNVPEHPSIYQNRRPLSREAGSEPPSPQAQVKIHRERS
Assay: TR-FRET displacement of Red-FL binding, HEK cells expressing full-length mFLT3
Details: HEK cells expressing full-length mFLT3, 0.5 nM Red-FL
Description: The binding of the A3 antibody to full-length hFLT3 and mFLT3 was measured by displacement of extracellular FL binding on recombinant HEK cells by using time-resolved fluorescence resonance energy transfer (TR-FRET).
Chemicals and reagents. The Tag-lite® labeling medium was from Cisbio Bioassays (Condolet, France). The Lumi4-Tb derivative of O6-Benzylguanine was synthesized by Cisbio Bioassays and is commercialized as SNAP-Lumi4-Tb (Cisbio Bioassays, Ref. SSNPTBE).
A recombinant rh-FLT3-L was produced as previously reported (Verstraete K, et al. Efficient production of bioactive recombinant human Flt3 ligand in E. coli. Protein J, 2009 28: 57-65) and labeled with a red fluorescent probe (Red-FL). Poly-L-ornithine (MW of 30,000-70,000 daltons) was from Sigma-Aldrich. The plasmids encoding for the SNAP tagged human FLT3 (pSNAP-hFLT3) or the mouse FLT3 (pSNAP-mFLT3) used for transient transfection was obtained from Cisbio Bioassays. Monoclonal antibodies against FLT3 (8F2) and phosphotyrosine FLT3 (PY969) were purchased from Cell Signaling Technology and labeled with Lumi4-Tb and d2 respectively, by Cisbio.
Cell culture. HEK293T cells, used for binding assays, were maintained in DMEM Glutamax (Invitrogen) supplemented with antibiotics (penicillin 50 U/ml, streptomycin 50 μg/ml) and 10% heat-inactivated Fetal Calf Serum.
Transfection procedures. […]

B1: A3 antibody: human monoclonal antibody against FLT3; VH SEQ ID NO:1, VL SEQ ID NO:2 (antibody, V domains shown)
VH: EVQLVESGGSLVKPGGSLRLSCAASGFTFSNSYMNWVRQAPGKGLEWISDISGSSRDIDYADFVKGRFTISRDNATNSLYLQMNSLRAEDTAVYYCVRSGNSGMDVWGRGTLVTVSS
VL: QSVLTQPASVSGSPGQSITISCAGTSSDVGGGYYVSWYQQHPGKAPKLMIYYDSYRPSGVSNRFSGSKSGNTASLTISGLQAEDEADYYCSSYTNNSTRVFGGGTKLEIK
modifications: Synthetic VH domain of A3; Synthetic VL region of A3
  IC50, displacement of FL binding: about 17 μg/ml
